PMC5719408, “Multivalent cross-linking of actin filaments and microtubules through the microtubule-associated protein Tau” (Nature Communications, 2017)

Target: NBD-conjugated actin from α-skeletal muscle (F-actin) (UniProt P68135)
Test: NBD-F-actin fluorescence titration
Details: reference: unphosphorylated Tau(254–284) peptide; sites S262

- binding against the reference: weaker
Substance: Tau (2N4R) 254-284 (from UniProt P10636-8) pS262 Tau(254–284) peptide
